{
  "source": "paper PMC3690555",
  "about": "(Biochemistry, 2009)",
  "molecules": {"B1": {"name": "WT-NiSOD, recombinant nickel-dependent superoxide dismutase from Streptomyces coelicolor (enzyme, UniProt P80735 15-131, looked up)", "chain": "HCDLPCGVYDPAQARIEAESVKAVQEKMAGNDDPHFQTRATVIKEQRAELAKHHVSVLWSDYFKPPHFEKYPELHQLVNDTLKALSAAKGSKDPATGQKALDYIAQIDKIFWETKKA"}},
  "key": {"[1]": {"target": "D3A-NiSOD (Streptomyces coelicolor)", "test": "SEC + native MS"}, "[2]": {"target": "D3A-NiSOD (Streptomyces coelicolor)", "test": "crystal structure"}, "[3]": {"target": "Y9F-NiSOD (Streptomyces coelicolor)", "test": "SEC + native MS"}, "[4]": {"target": "Y9F-NiSOD (Streptomyces coelicolor)", "test": "crystal structure"}, "[5]": {"target": "Y9FY62F-NiSOD (Streptomyces coelicolor)", "test": "SEC + native MS"}, "[6]": {"target": "Y62F-NiSOD (Streptomyces coelicolor)", "test": "SEC + native MS"}, "SEC + native MS": {"target": "the molecule itself", "test": "SEC + native MS"}},
  "data": [
    {"molecule": "D3A-NiSOD (enzyme)", "values": [
      {"measurement": "stoichiometry N", "setting": "[1]", "result": 6},
      {"measurement": "stoichiometry N", "setting": "[2]", "result": 6}
    ]},
    {"molecule": "Y9F-NiSOD (enzyme)", "values": [
      {"measurement": "stoichiometry N", "setting": "[3]", "result": 6},
      {"measurement": "stoichiometry N", "setting": "[4]", "result": 6}
    ]},
    {"molecule": "Y9FY62F-NiSOD (enzyme)", "values": [
      {"measurement": "stoichiometry N", "setting": "[5]", "result": 6}
    ]},
    {"molecule": "Y62F-NiSOD (enzyme)", "values": [
      {"measurement": "stoichiometry N", "setting": "[6]", "result": 6}
    ]},
    {"molecule": "B1", "values": [
      {"measurement": "stoichiometry N", "setting": "SEC + native MS", "result": 6}
    ]}
  ]
}
